How the values were obtained:
[1] = tested on: K4 kissing-loop RNA reporter; assay: apparent KD of K4 kissing-loop reporter; higher = weaker reporter binding; conditions: Eterna round: R107;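 also: bound reporter read as fluorescence of individual clusters on recovered sequencing chips by microscopy, with normalized cluster intensities fitted with a binding model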
Procedure: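 RNA-MaP round R107: designed RNA switches with theophylline, tryptophan, arginine or FMN aptamers are transcribed on-chip within common flanks. They are titrated with a labelled K4 kissing-loop RNA reporter in RNA-MaP buffer (100 mM Tris pH 7.5, 80 mM KCl, 4 mM MgCl2), without ligand or with the indicated ligand. Median apparent KD per design.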

[2] = tested on: MS2 coat protein; assay: apparent KD of MS2 coat protein; designed switch direction (-1 OFF switch, 1 ON switch): -1; higher = weaker reporter binding
Outline: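 Designed RNA switches sharing common flanks were transcribed on Illumina chips by stalled E. coli RNA polymerase. They were titrated with SNAP-549-labelled MS2 coat protein, from 0.7 or 1.5 nM doubling to 3 µM, in Tris-HCl pH 7.5 buffer with KCl, MgCl2, BSA, DTT, tRNA and Tween-20. Titrations ran without input, with 200 uM small-molecule ligand, or with an oligonucleotide input. The apparent KD of each design is the median over its clusters, after curve-fitting of normalised cluster fluorescence.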

[3] = input ligand: theophylline 20 uM
[4] = input ligand: tryptophan 2.4 mM
[5] = Eterna round: R95, input ligand: FMN 200 uM
[6] = Eterna round: R95, input ligand: microRNA oligo, concentration not stated
[7] = Eterna round: R95, input ligand: none
[8] = input ligand: microRNA oligo, concentration not stated

Sequence: UCAUCGGUACAAGGAUAUUAGAGGUAGUGAUGUUACCCGUUUUUUAUACAUCGAUGUCACCCUAACUAAGAAGGUGUUCAAACUU [theeternabot_exclusion_KL_FMN_B_7]
- apparent KD of K4 kissing-loop reporter ([1]; input ligand: FMN 200 uM): 0.0625 µM
- apparent KD of K4 kissing-loop reporter ([1]; input ligand: arginine 13.2 mM): 0.0527 µM
- apparent KD of K4 kissing-loop reporter ([1]; input ligand: none): 0.0502 µM
- apparent KD of K4 kissing-loop reporter [1, 3]: 0.054 µM
- apparent KD of K4 kissing-loop reporter [1, 4]: 0.0384 µM

Sequence: GUCUCGAGUGAUGUUCGGGUCGAUUGGGAAGGAGCGCCCGGAAGGGCAGGUAGGUCGCCCGGACCGCGCGGGCAACCGCGCGGCC [#2 Same State - Arginine A Attempt #11 (HarryS)]
- apparent KD of K4 kissing-loop reporter ([1]; input ligand: FMN 200 uM): 0.186 µM
- apparent KD of K4 kissing-loop reporter ([1]; input ligand: arginine 13.2 mM): 0.108 µM
- apparent KD of K4 kissing-loop reporter ([1]; input ligand: none): 0.147 µM
- apparent KD of K4 kissing-loop reporter [1, 3]: 0.141 µM
- apparent KD of K4 kissing-loop reporter [1, 4]: 0.163 µM

Sequence: AACCGUGUGGCGGCCGCCACUAGUCUCCAGUGAUGUUGGAGAGAUCACGUAAGUGAUCUCCGACAUAGGACCGGGCCAUAUGGAA [Same State - Tryptophan B (Freestyle 24)]
- apparent KD of K4 kissing-loop reporter ([1]; input ligand: FMN 200 uM): 0.509 µM
- apparent KD of K4 kissing-loop reporter ([1]; input ligand: arginine 13.2 mM): 0.152 µM
- apparent KD of K4 kissing-loop reporter ([1]; input ligand: none): 0.295 µM
- apparent KD of K4 kissing-loop reporter [1, 3]: 0.351 µM
- apparent KD of K4 kissing-loop reporter [1, 4]: 0.661 µM

Sequence: AAUAAACAUGAGGAUCACCCAUGUCAGGAUAUACGAAGAAAGAAAGAAAGAAAGAAGAGUAGAAGGGAUAGGAA [Excls1-III] (puzzle: Exclusion 1)
- apparent KD of MS2 coat protein [2, 5]: 0.0316 µM
- apparent KD of MS2 coat protein [2, 6]: 0.0293 µM
- apparent KD of MS2 coat protein [2, 7]: 0.0326 µM

Sequence: UUUUAGCUAGGAUAUACAUUUUUUUUAUUAUCCUCAUUAUUACAUGAGGAUCACCCAUGUAGAAGGAGCAUUUU [My Design] (puzzle: Exclusion 2)
- apparent KD of MS2 coat protein [2, 6]: 0.219 µM

Sequence: GAUUGACAUGAGGAUCACCCAUGUGAGGAUAUCGGCCGGACCUUGUUAGCUUCCACCGCGAGAAGGCACAUCGG [Exclusion 1 V30] (puzzle: Exclusion 1)
- apparent KD of MS2 coat protein [2, 6]: 0.017 µM

Sequence: UCCGCCAAAGGAUAUACUGGGCGUUAAAAUCCUCUUAAAAGACAUGAGGAUCACCCAUGUAGAAGGUUGAGGAA [Isererri] (puzzle: Exclusion 2)
- apparent KD of MS2 coat protein [2, 6]: 0.201 µM

Sequence: GUAAACGUAUAGGAUAUUUCAGGUCAAAGCUGCAAAGAAGGAUACACAUGAGGAUCACCCAUGUGGUCAAUAAA [Mod of Quesina 23 - Jieux - Exclusion 6] (Eterna round: R97, puzzle: Exclusion 6)
- apparent KD of MS2 coat protein ([2]; input ligand: FMN 200 uM): 0.0422 µM
- apparent KD of MS2 coat protein ([2]; input ligand: none): 0.0204 µM

Sequence: GUCAUACAUGAGGAUCACCCAUGUGAGGAUAUGAGUGGUGCUGCUAGGUAGUAUAGACUCAGAAGGCGCAUGAU [Malcxlusion 1 - Jieux - Exclusion 1] (Eterna round: R97, puzzle: Exclusion 1)
- apparent KD of MS2 coat protein ([2]; input ligand: FMN 200 uM): 0.288 µM
- apparent KD of MS2 coat protein ([2]; input ligand: none): 0.105 µM

Sequence: UAAGCUCUGUCAGGAUAUCCCUGUAAACGCAACGGAGAAGGGACAUGAGGAUCACCCAUGUGCGGGCCCAACGCGCUCGGGUCC [Dilacesole] (Eterna round: R96, puzzle: Exclusion NG 1)
- apparent KD of MS2 coat protein ([2]; input ligand: FMN 200 uM): 0.0636 µM
- apparent KD of MS2 coat protein [2, 8]: 0.0236 µM
- apparent KD of MS2 coat protein ([2]; input ligand: none): 0.0351 µM

Sequence: UCUAGACAUGAGGAUCACCCAUGUGAGGAUAUGAUGCGAUCGUCGAAAGACGAUAGCAUCAGAAGGCACGUAUG [Fiskers Ex 1 - 14] (puzzle: Exclusion 1)
- apparent KD of MS2 coat protein [2, 6]: 0.0544 µM

Sequence: UCGGCGCGAGGAUAUACGUUUGCUUUUUUUUGUCGUUGCGUACAUGAGGAUCACCCAUGUAGAAGGCGCGCCGC [Apr-15 SS2-23] (puzzle: Exclusion 2)
- apparent KD of MS2 coat protein [2, 6]: 0.0168 µM

Sequence: GAUUAUGCGAGCUUUAGGGACAUGAGGAUCACCCAUGUUCGUCUUAUUGAUCUAGGUACGCUGACAUACCUAAAUCU [Mod of one of jandersonlee's solutions 2] (puzzle: Sensor v3, turn-off variant 1)
- apparent KD of MS2 coat protein [2, 5]: 0.0224 µM
- apparent KD of MS2 coat protein [2, 6]: 0.0361 µM
- apparent KD of MS2 coat protein [2, 7]: 0.0244 µM

Sequence: AAGUAGUGUGUGAGGAUAUUGGUGGAAUGACACAUUAAGAAGGUACAUGAGGAUCACCCAUGUGGGUAAACACG [Brourd's EX4 #23] (Eterna round: R97, puzzle: Brourd's mod of Exclusion 4)
- apparent KD of MS2 coat protein ([2]; input ligand: FMN 200 uM): 0.137 µM
- apparent KD of MS2 coat protein ([2]; input ligand: none): 0.146 µM

Sequence: UUUAAUUUUUUUUUUUUACAAGCUUUUUGCUCGUCUUAUACAUGAGGAUCACCCAUGUGGGUGGAGAGUAAAUUAUC [JMF 60] (puzzle: Sensor v3, turn-off variant 2)
- apparent KD of MS2 coat protein [2, 5]: 0.0454 µM
- apparent KD of MS2 coat protein [2, 6]: 0.0471 µM
- apparent KD of MS2 coat protein [2, 7]: 0.056 µM

Sequence: UCUAUGAUGCGAGGAUAUCGACCAUUCCUCUUUACAUGAGGAUCACCCAUGUUCGUACGCUACAACGAGAAGGCGCACUAAGUU [JR_ExcNG2_Sub060] (Eterna round: R96, puzzle: Exclusion NG 2)
- apparent KD of MS2 coat protein ([2]; input ligand: FMN 200 uM): 0.292 µM
- apparent KD of MS2 coat protein [2, 8]: 0.131 µM
- apparent KD of MS2 coat protein ([2]; input ligand: none): 0.157 µM

Sequence: CUAUUACGAGGAUAUGAUUUAAAUAACAUGAGGAUCACCCAUGUUUUUACGUUAUUAUGUUUAGAAGGCGUAUUGU [JR_E5_Sub026] (puzzle: Exclusion 5)
- apparent KD of MS2 coat protein [2, 6]: 0.0434 µM

Sequence: CGUACUAACACGAAAGUGUUAGUACAAUAAGCUUGUGAAACAUGAGGAUCACCCAUGUCCUCAUAAGCUCGUCUUAG [salish99_TOv2_r3_008] (puzzle: Sensor v3, turn-off variant 2)
- apparent KD of MS2 coat protein [2, 5]: 0.0171 µM
- apparent KD of MS2 coat protein [2, 6]: 0.388 µM
- apparent KD of MS2 coat protein [2, 7]: 0.0145 µM

Sequence: GACCUUCCUGUAAGGAUAUCCAUGUAUCAAAGCAUGGAGAAGGUACAUGAGGAUCACCCAUGUCACCCGCGUUA (Eterna round: R97, puzzle: Brourd's mod of Exclusion 4)
- apparent KD of MS2 coat protein ([2]; input ligand: FMN 200 uM): 0.0177 µM
- apparent KD of MS2 coat protein ([2]; input ligand: none): 0.0117 µM

Sequence: AGAAAUGCCCAUGGCCACAAGCUUUUUGCUUGCCUUACCACAUGAGGAUCACCCAUGUGACAUGGGCUCCUUAUAAU [Teoredale] (puzzle: Sensor v3, turn-off variant 2)
- apparent KD of MS2 coat protein [2, 5]: 0.0153 µM
- apparent KD of MS2 coat protein [2, 6]: 0.0131 µM
- apparent KD of MS2 coat protein [2, 7]: 0.014 µM

Sequence: CCGAAUAUGUAGGAUAUCGUAUCGGAAACGAUACGAGAAGGACAAACAUGAGGAUCACCCAUGUUCCUUAACGG [Fiskers Ex 6 - 12] (puzzle: Exclusion 6)
- apparent KD of MS2 coat protein [2, 5]: 0.0185 µM
- apparent KD of MS2 coat protein [2, 6]: 0.0156 µM
- apparent KD of MS2 coat protein [2, 7]: 0.015 µM

Sequence: UUUUAACAUGAGGAUCACCCAUGUGAGGAUAUCGAAAUUUAUAUUAAUAUUAAUAUUACGAGAAGGCACAUUUU [JMF 26] (puzzle: Exclusion 1)
- apparent KD of MS2 coat protein [2, 6]: 0.077 µM

Sequence: CCCGUGUGAGGAUAUACUCUAAGCAAUGUCAGUUGCUACAGGUAGAAGGCACAUGAGGAUCACCCAUGUCCCGG [EX4 C.24] (Eterna round: R97, puzzle: Exclusion 4)
- apparent KD of MS2 coat protein ([2]; input ligand: FMN 200 uM): 0.13 µM
- apparent KD of MS2 coat protein ([2]; input ligand: none): 0.241 µM

Sequence: CAAUUCCGAGGAUAUACAUGAGGAUCACCCAUGUCGGGCCUCAGCGUUUAGCGCUUAAGUAGAAGGUGGGUUUC [JL Riri mod 5] (puzzle: Exclusion 3)
- apparent KD of MS2 coat protein [2, 6]: 0.0325 µM

Sequence: GAGAGACGAGGAUAUGCAGGAGUGCAGUCAGGUUCCAAAAUACAUGAGGAUCACCCAUGUAGAAGGUGUCAUCU [Eternabot (L2) Solution 26] (Eterna round: R97, puzzle: Exclusion 2)
- apparent KD of MS2 coat protein ([2]; input ligand: FMN 200 uM): 0.0166 µM
- apparent KD of MS2 coat protein ([2]; input ligand: none): 0.0156 µM

Sequence: GCUUGUGGGCAAGGAUAUCCUACGUUGUUCUGGUUCGUGUCUGUCACAUGAGGAUCACCCAUGUGGGAGAAGGUGCAUUUGGUG [Design 61] (Eterna round: R96, puzzle: Exclusion NG 2)
- apparent KD of MS2 coat protein [2, 8]: 0.0129 µM
